Source: US20190077860A1 (EISAI R AND D MANAGEMENT, published 2019)
Numbering of substitutions follows the chain as printed.

T1: human EphA10 extracellular region-SEAP-His protein (human, UniProt Q5JZY3 34-565)
T1 construct: extracellular domain; also called hEphA10-SEAP-His
T1 sequence (looked up): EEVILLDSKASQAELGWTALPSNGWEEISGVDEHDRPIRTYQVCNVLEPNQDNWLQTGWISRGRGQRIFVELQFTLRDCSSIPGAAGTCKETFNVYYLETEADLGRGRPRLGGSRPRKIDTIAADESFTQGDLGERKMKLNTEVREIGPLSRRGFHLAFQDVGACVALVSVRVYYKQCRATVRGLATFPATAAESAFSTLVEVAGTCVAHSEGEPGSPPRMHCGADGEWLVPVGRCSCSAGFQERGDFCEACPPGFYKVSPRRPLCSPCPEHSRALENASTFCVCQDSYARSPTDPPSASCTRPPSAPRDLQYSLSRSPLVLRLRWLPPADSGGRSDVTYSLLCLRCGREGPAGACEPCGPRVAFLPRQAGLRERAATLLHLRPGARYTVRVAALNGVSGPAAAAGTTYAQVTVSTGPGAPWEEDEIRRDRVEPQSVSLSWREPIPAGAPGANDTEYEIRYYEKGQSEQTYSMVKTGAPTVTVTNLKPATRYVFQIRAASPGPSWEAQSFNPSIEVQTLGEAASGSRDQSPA

T2: human EphB4 extracellular region-SEAP-His protein (human, UniProt P54760 16-539)
T2 construct: extracellular domain; also called hEphB4-SEAP-His
T2 sequence (looked up): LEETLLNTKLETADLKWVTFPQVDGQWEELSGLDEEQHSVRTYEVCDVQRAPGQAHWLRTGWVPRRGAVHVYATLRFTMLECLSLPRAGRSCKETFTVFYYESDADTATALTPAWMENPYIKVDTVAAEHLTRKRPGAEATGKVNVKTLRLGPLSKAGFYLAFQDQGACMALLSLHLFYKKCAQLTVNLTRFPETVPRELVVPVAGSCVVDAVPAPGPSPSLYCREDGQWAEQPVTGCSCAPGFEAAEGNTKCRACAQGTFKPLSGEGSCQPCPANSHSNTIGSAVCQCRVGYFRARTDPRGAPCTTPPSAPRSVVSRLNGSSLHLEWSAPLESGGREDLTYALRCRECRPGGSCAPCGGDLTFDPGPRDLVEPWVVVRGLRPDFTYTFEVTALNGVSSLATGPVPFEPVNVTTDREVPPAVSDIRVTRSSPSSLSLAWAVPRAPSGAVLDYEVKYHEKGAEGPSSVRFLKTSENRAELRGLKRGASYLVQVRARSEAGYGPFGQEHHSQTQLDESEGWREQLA

T3: human EphB3 extracellular region-SEAP-His protein (human, UniProt P54753 34-559)
T3 construct: extracellular domain; also called hEphB3-SEAP-His
T3 sequence (looked up): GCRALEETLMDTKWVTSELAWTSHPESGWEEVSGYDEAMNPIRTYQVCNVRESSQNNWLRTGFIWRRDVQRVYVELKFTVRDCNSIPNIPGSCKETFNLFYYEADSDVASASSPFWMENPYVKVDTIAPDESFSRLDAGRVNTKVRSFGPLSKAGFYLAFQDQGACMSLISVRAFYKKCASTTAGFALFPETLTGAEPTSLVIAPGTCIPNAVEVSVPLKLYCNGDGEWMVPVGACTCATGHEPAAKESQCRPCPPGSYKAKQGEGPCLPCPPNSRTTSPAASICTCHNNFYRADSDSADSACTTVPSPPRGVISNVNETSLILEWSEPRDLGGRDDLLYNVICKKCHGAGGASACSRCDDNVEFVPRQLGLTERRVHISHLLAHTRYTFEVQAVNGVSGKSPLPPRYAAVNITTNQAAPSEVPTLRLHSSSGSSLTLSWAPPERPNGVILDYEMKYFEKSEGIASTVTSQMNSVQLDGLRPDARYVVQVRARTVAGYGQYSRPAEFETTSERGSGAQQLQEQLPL

T4: human EphA3 extracellular region-SEAP-His protein (human, UniProt P29320 21-541)
T4 construct: extracellular domain; also called hEphA3-SEAP-His
T4 sequence (looked up): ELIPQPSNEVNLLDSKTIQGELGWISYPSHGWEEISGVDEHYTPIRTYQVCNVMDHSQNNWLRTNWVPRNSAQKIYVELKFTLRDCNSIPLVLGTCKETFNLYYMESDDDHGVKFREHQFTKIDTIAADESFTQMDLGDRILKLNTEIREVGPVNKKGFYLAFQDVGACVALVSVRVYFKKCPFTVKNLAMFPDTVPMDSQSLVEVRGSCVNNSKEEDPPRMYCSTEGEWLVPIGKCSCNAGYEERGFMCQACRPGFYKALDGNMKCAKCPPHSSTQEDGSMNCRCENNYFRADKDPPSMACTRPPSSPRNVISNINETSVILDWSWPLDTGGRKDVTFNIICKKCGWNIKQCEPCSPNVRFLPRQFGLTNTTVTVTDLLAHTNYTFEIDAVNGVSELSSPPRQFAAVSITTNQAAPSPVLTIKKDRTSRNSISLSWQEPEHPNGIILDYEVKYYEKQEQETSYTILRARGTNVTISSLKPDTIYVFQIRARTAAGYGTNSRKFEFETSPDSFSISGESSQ

B1: humanized antibody No. 154 (antibody, human IgG2)
heavy: QVQLVQSGSELKKPGASVKVSCKASGYTFTDYSMHWVRQAPGQGLEWMGWINTETGEPTYADDFKGRFVFSLDTSVSTAYLQISSLKAEDTAVYYCARIPLYYYGSRYWYFDVWGQGTTVTVSSASTKGPSVFPLAPSSRSTSESTAALGCLVKDYFPEPVTVSWNSGALTSGVHTFPAVLQSSGLYSLSSVVTVPSSNFGTQTYTCNVDHKPSNTKVDKTVERKSCVECPPCPAPPAAAPSVFLFPPKPKDTLMISRTPEVTCVVVDVSHEDPEVQFNWYVDGVEVHNAKTKPREEQFNSTFRVVSVLTVVHQDWLNGKEYKCKVSNKGLPAPIEKTISKTKGQPREPQVYTLPPSREEMTKNQVSLTCLVKGFYPSDIAVEWESNGQPENNYKTTPPMLDSDGSFFLYSKLTVDKSRWQQGNVFSCSVMHEALHNHYTQKSLSLSPG
light: DIQMTQSPSSLSASVGDRVTITCRASENIYRNLAWYQQKPGKAPKLLLYAATNLADGVPSRFSGSGSGTDYTLTISSLQSEDFATYYCQHFWGTPWTFGQGTKVEIKRTVAAPSVFIFPPSDEQLKSGTASVVCLLNNFYPREAKVQWKVDNALQSGNSQESVTEQDSKDSTYSLSSTLTLSKADYEKHKVYACEVTHQGLSSPVTKSFNRGEC
notes: human Ig kappa; also called L1-5/HK1
B2: humanized antibody No. 134 (antibody, human IgG2)
heavy: B1 heavy with E46K, D62Q, D63G, K65T
light: EIVMTQSPATLSVSPGERATLSCRASENIYRNLAWYQQKPGQSPRLLIYAATNLADGIPARFSGSGSGTEYTLTISSLQSEDFAVYYCQHFWGTPWTFGQGTKVEIKRTVAAPSVFIFPPSDEQLKSGTASVVCLLNNFYPREAKVQWKVDNALQSGNSQESVTEQDSKDSTYSLSSTLTLSKADYEKHKVYACEVTHQGLSSPVTKSFNRGEC
notes: human Ig kappa; also called L2-4/HA2
B3: humanized antibody No. 159 (antibody, human IgG2)
heavy: B1 heavy with E46K
light: B1 light with K45Q, S80P
notes: human Ig kappa; also called L1-6/HK2
B4: humanized antibody No. 157 (antibody, human IgG2)
heavy: B1 heavy with D62Q, D63G, K65T
light: B1 light with K45Q, S80P
notes: human Ig kappa; also called L1-6/HA1
B5: humanized antibody No. 155 (antibody, human IgG2)
heavy: B1 heavy with V2I, E46K
light: B1 light
notes: human Ig kappa; also called L1-5/HK4
B6: humanized antibody No. 160 (antibody, human IgG2)
heavy: B1 heavy with V2I, E46K
light: B1 light with K45Q, S80P
notes: human Ig kappa; also called L1-6/HK4
B7: humanized antibody No. 156 (antibody, human IgG2)
heavy: B1 heavy with V2I, E46K, D62Q, D63G, K65T
light: B1 light with K45Q, S80P
notes: human Ig kappa; also called L1-6/HA4
B8: humanized antibody No. 158 (antibody, human IgG2)
heavy: B1 heavy with E46K, D62Q, D63G, K65T
light: B1 light with K45Q, S80P
notes: human Ig kappa; also called L1-6/HA2

What was measured:
Assay in all cases: ELISA
[1] = biological target: SEAP-His (UniProt P05187 23-511)
[2] = biological target: T1, human EphA10 extracellular …
[3] = biological target: T2, human EphB4 extracellular …
[4] = biological target: T3, human EphB3 extracellular …
[5] = biological target: T4, human EphA3 extracellular …

Chain of SEAP-His (P05187 23-511): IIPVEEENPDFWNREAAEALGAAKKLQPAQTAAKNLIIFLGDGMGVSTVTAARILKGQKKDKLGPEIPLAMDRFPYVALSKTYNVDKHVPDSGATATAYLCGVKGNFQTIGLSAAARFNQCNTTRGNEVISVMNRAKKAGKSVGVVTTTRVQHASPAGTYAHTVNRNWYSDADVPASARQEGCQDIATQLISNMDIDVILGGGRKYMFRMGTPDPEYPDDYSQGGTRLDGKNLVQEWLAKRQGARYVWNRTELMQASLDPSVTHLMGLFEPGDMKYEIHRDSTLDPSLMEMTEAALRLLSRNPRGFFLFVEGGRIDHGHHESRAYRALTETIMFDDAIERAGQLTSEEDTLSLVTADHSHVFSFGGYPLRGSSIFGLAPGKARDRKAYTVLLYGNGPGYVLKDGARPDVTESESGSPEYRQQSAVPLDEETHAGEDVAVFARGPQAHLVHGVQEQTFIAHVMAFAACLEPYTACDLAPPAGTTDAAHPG

| Binder | A450 as % of hEphA4-SEAP-His [1] [%] | A450 as % of hEphA4-SEAP-His [2] [%] | A450 as % of hEphA4-SEAP-His [3] [%] | A450 as % of hEphA4-SEAP-His [4] [%] | A450 as % of hEphA4-SEAP-His [5] [%] |
| --- | --- | --- | --- | --- | --- |
| B1 | 6.3 | 5.9 | 6.4 | 6.2 | 6.2 |
| B2 | 5.1 | 5 | 5.1 | 5.2 | 5 |
| B3 | 5.3 | 5.3 | 5.4 | 5.5 | 5.4 |
| B4 | 6.1 | 6.1 | 6.5 | 6.4 | 6.4 |
| B5 | 5.8 | 5.4 | 5.7 | 5.5 | 5.6 |
| B6 | 6.3 | 5 | 6.3 | 6.2 | 6.2 |
| B7 | 5.4 | 5.3 | 5.6 | 5.6 | 5.7 |
| B8 | 6.3 | 6.4 | 6.5 | 6.5 | 6.5 |
